In patent US20040202655A1 one finds IC50 (nM), IGF-1 dependent proliferation of NIH-3T3/hIGF-1R cells (BrdU ELISA) and IC50 data, which are given here for 4 substances.

Where “and” joins values, the source holds several entries; their conditions need not be identical. Equal values may be shown once.

The IC50 is the midpoint of a concentration-inhibition curve.

The target of assay [1] is human IGF-I receptor on cells (NIH-3T3 fibroblasts expressing the human IGF-IR; DU145 cells) (human) (UniProt P08069). In words: cell-based or functional assay.
Assay [2] shares this target. In words: competition with 125I-IGF-I, NIH-3T3 cells expressing human IGF-1R, 4 C.
Assay [3] has the same target. In words: competition with 125I-IGF-I, NIH-3T3 cells expressing human IGF-1R, 37 C.
For assay [4] the target is unchanged. As to the kind of experiment: competition with 125I-IGF-II, NIH-3T3 cells expressing human IGF-1R, 37 C.
The target is the same in assay [5]. In words: competition with 125I-IGF-II, NIH-3T3 cells expressing human IGF-1R, 4 C.

“mouse anti-IGF-1R monoclonal antibody alpha IR3 (#GR11SP2, Oncogene Research Products)”: the IC50 (nM), IGF-1 dependent proliferation of NIH-3T3/hIGF-1R cells (BrdU ELISA) in assay [1] was greater than 70 nM. Moreover, the half-inhibitory concentration (IC50) was 3.5 nM in assay [2]; 1.6 nM and 1.9 nM in assay [3]; greater than 50 nM in assay [4].

With “UPC-10 (#F-0528), IgG2a isotype control (antibody)”, the IC50 (nM), IGF-1 dependent proliferation of NIH-3T3/hIGF-1R cells (BrdU ELISA) in assay [1] was greater than 70 nM. Also, the IC50 in assay [4] was greater than 50 nM.

Take “MOPC-21 (#M-7894, Sigma), IgG1 isotype control (antibody)”: in assay [1], the IC50 (nM), IGF-1 dependent proliferation of NIH-3T3/hIGF-1R cells (BrdU ELISA) is greater than 70 nM. The IC50 in assay [3] and in assay [4] was greater than 50 nM throughout.

Consider “mouse anti-IGF-1R monoclonal antibody 24-57 (#MS-643-PABX, NeoMarkers)”, for which the IC50 in assay [2] was 3 nM and 1.5 nM and 4 nM; in assay [3] it was 1.7 nM and 1.9 nM; in assay [5], 1 nM and 0.6 nM; in assay [4], 4 nM and 6.5 nM.
